We go through 1 substance from US20110300066A1.

This assay addresses CD20 (human) (UniProt P11836). As to the kind of experiment: cell-based or functional assay.

Sequence of CD20 (human) (P11836 whole entry): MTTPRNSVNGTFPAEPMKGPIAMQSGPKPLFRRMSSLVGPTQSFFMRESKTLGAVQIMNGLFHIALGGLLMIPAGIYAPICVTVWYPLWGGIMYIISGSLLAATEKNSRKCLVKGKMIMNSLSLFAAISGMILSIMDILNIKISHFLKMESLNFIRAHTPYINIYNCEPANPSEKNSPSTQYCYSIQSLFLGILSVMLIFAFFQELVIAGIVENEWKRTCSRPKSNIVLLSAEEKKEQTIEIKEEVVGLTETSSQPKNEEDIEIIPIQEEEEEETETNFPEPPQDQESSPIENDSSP

In turn, 20-Rap (antibody) showed an in vitro cytotoxicity EC50, Daudi and Ramos cells of 0.0001 µM; an in vitro cytotoxicity EC50, Jeko-1 cells of 20 µM.
